Reference: patent US20260001928A1 (CORTERIA PHARMACEUTICALS, priority 2022, published 2026)
One block for each binder: values may come before it. *1 amine or outer side, *2 acyl side, *3 side chain or, on linkers, in order; H or OH if unused. Where no end group is shown, it is not given here. Side-chain parts run from the residue outwards. [ ]: non-standard residue; d: D form. The star is where a group is joined. C20 diacid = O=C(O)CCCCCCCCCCCCCCCCCCC(=O)*; γGlu = O=C(O)[C@H](CCC(=O)[*:2])N[*:1]; NMeI = CC[C@H](C)[C@H](NC)C(=O)O; Pentanoyl = CCCCC(=O)*; AEEA = NCCOCCOCC(=O)O; Aib = CC(C)(N)C(=O)O

Assays:
[1] = target: T1, CRF1R (corticotropin-releasing factor receptor 1), on the CRF1R-overexpression CHO-K1 cell line clone 2 (UniProt P34998 24-415, limits assumed); test: cell-based or functional assay
T1 sequence (looked up): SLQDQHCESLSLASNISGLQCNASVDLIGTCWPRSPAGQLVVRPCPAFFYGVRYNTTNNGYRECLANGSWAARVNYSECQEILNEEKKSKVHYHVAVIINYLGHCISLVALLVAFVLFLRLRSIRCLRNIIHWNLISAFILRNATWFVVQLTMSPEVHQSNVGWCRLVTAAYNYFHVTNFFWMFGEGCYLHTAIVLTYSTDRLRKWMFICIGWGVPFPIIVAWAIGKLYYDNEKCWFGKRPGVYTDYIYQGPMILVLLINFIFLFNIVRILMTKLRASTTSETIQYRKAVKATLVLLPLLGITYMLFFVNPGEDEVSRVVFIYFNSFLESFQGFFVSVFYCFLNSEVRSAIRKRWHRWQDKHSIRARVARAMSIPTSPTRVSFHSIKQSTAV

[2] = target: Rat CRF2 a (corticotropin-releasing factor receptor 2), on the A7R5 rat aortic smooth muscle cell line (rat, UniProt P47866 20-411); test: cell-based or functional assay
Rat CRF2 a (corticotropin-releasing factor receptor 2), on the A7R5 rat aortic smooth muscle cell line, sequence (P47866 20-411): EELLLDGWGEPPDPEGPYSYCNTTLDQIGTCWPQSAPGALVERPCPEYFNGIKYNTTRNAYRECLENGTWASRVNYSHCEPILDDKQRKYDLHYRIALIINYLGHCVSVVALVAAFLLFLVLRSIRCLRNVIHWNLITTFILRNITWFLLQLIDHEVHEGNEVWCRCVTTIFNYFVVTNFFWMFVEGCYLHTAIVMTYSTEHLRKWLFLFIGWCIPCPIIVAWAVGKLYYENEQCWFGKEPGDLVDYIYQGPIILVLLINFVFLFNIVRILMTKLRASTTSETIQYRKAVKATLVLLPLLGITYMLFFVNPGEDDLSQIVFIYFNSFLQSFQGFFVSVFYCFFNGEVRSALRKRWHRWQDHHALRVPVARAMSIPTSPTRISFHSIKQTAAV

B2: peptide of SEQ ID NO: 236 (peptide)
peptide: Ac-IVLSLD[dV]PIKLK([AEEA-AEEA-γGlu-C20 diacid])KILLEQEKQKEQREQAETN[Aib]QILAQV-NH2
SMILES: CC[C@H](C)[C@H](NC(C)=O)C(=O)N[C@H](C(=O)N[C@@H](CC(C)C)C(=O)N[C@@H](CO)C(=O)N[C@@H](CC(C)C)C(=O)N[C@@H](CC(=O)O)C(=O)N[C@@H](C(=O)N1CCC[C@H]1C(=O)N[C@H](C(=O)N[C@@H](CCCCN)C(=O)N[C@@H](CC(C)C)C(=O)N[C@@H](CCCCNC(=O)COCCOCCNC(=O)COCCOCCNC(=O)CC[C@H](NC(=O)CCCCCCCCCCCCCCCCCCC(=O)O)C(=O)O)C(=O)N[C@@H](CCCCN)C(=O)N[C@H](C(=O)N[C@@H](CC(C)C)C(=O)N[C@@H](CC(C)C)C(=O)N[C@@H](CCC(=O)O)C(=O)N[C@@H](CCC(N)=O)C(=O)N[C@@H](CCC(=O)O)C(=O)N[C@@H](CCCCN)C(=O)N[C@@H](CCC(N)=O)C(=O)N[C@@H](CCCCN)C(=O)N[C@@H](CCC(=O)O)C(=O)N[C@@H](CCC(N)=O)C(=O)N[C@@H](CCCNC(=N)N)C(=O)N[C@@H](CCC(=O)O)C(=O)N[C@@H](CCC(N)=O)C(=O)N[C@@H](C)C(=O)N[C@@H](CCC(=O)O)C(=O)N[C@H](C(=O)N[C@@H](CC(N)=O)C(=O)NC(C)(C)C(=O)N[C@@H](CCC(N)=O)C(=O)N[C@H](C(=O)N[C@@H](CC(C)C)C(=O)N[C@@H](C)C(=O)N[C@@H](CCC(N)=O)C(=O)N[C@H](C(N)=O)C(C)C)[C@@H](C)CC)[C@@H](C)O)[C@@H](C)CC)[C@@H](C)CC)C(C)C)C(C)C
EC50 [nM] (cAMP, CRF1R-overexpression CHO-K1 cells) [1]: > 250 nM
Emax (% I) (cAMP, 100% = Sauvagine at 100 nM) [1]: 7 % I
EC50 [nM] 0% HSA (cAMP, A7R5 rat aortic smooth muscle cells) [2]: 2.81 nM

B3: peptide of SEQ ID NO: 240 (peptide)
peptide: Ac-IVLSLD[dV]PIKLK([AEEA-AEEA-γGlu-C20 diacid])KILLEQEKQKAQREQAETN[Aib]QILAQV-NH2
SMILES: CC[C@H](C)[C@H](NC(C)=O)C(=O)N[C@H](C(=O)N[C@@H](CC(C)C)C(=O)N[C@@H](CO)C(=O)N[C@@H](CC(C)C)C(=O)N[C@@H](CC(=O)O)C(=O)N[C@@H](C(=O)N1CCC[C@H]1C(=O)N[C@H](C(=O)N[C@@H](CCCCN)C(=O)N[C@@H](CC(C)C)C(=O)N[C@@H](CCCCNC(=O)COCCOCCNC(=O)COCCOCCNC(=O)CC[C@H](NC(=O)CCCCCCCCCCCCCCCCCCC(=O)O)C(=O)O)C(=O)N[C@@H](CCCCN)C(=O)N[C@H](C(=O)N[C@@H](CC(C)C)C(=O)N[C@@H](CC(C)C)C(=O)N[C@@H](CCC(=O)O)C(=O)N[C@@H](CCC(N)=O)C(=O)N[C@@H](CCC(=O)O)C(=O)N[C@@H](CCCCN)C(=O)N[C@@H](CCC(N)=O)C(=O)N[C@@H](CCCCN)C(=O)N[C@@H](C)C(=O)N[C@@H](CCC(N)=O)C(=O)N[C@@H](CCCNC(=N)N)C(=O)N[C@@H](CCC(=O)O)C(=O)N[C@@H](CCC(N)=O)C(=O)N[C@@H](C)C(=O)N[C@@H](CCC(=O)O)C(=O)N[C@H](C(=O)N[C@@H](CC(N)=O)C(=O)NC(C)(C)C(=O)N[C@@H](CCC(N)=O)C(=O)N[C@H](C(=O)N[C@@H](CC(C)C)C(=O)N[C@@H](C)C(=O)N[C@@H](CCC(N)=O)C(=O)N[C@H](C(N)=O)C(C)C)[C@@H](C)CC)[C@@H](C)O)[C@@H](C)CC)[C@@H](C)CC)C(C)C)C(C)C
EC50 [nM] (cAMP, CRF1R-overexpression CHO-K1 cells) [1]: > 250 nM
Emax (% I) (cAMP, 100% = Sauvagine at 100 nM) [1]: 4 % I
EC50 [nM] 0% HSA (cAMP, A7R5 rat aortic smooth muscle cells) [2]: 2.3 nM

B4: peptide of SEQ ID NO: 237 (peptide)
peptide: [NMeI]VLSLD[dV]PIKLK([AEEA-AEEA-γGlu-C20 diacid])KILLEQEKQKEQREQAETN[Aib]QILAQV-NH2
modifications: N-terminus assumed
SMILES: CC[C@H](C)[C@H](NC)C(=O)N[C@H](C(=O)N[C@@H](CC(C)C)C(=O)N[C@@H](CO)C(=O)N[C@@H](CC(C)C)C(=O)N[C@@H](CC(=O)O)C(=O)N[C@@H](C(=O)N1CCC[C@H]1C(=O)N[C@H](C(=O)N[C@@H](CCCCN)C(=O)N[C@@H](CC(C)C)C(=O)N[C@@H](CCCCNC(=O)COCCOCCNC(=O)COCCOCCNC(=O)CC[C@H](NC(=O)CCCCCCCCCCCCCCCCCCC(=O)O)C(=O)O)C(=O)N[C@@H](CCCCN)C(=O)N[C@H](C(=O)N[C@@H](CC(C)C)C(=O)N[C@@H](CC(C)C)C(=O)N[C@@H](CCC(=O)O)C(=O)N[C@@H](CCC(N)=O)C(=O)N[C@@H](CCC(=O)O)C(=O)N[C@@H](CCCCN)C(=O)N[C@@H](CCC(N)=O)C(=O)N[C@@H](CCCCN)C(=O)N[C@@H](CCC(=O)O)C(=O)N[C@@H](CCC(N)=O)C(=O)N[C@@H](CCCNC(=N)N)C(=O)N[C@@H](CCC(=O)O)C(=O)N[C@@H](CCC(N)=O)C(=O)N[C@@H](C)C(=O)N[C@@H](CCC(=O)O)C(=O)N[C@H](C(=O)N[C@@H](CC(N)=O)C(=O)NC(C)(C)C(=O)N[C@@H](CCC(N)=O)C(=O)N[C@H](C(=O)N[C@@H](CC(C)C)C(=O)N[C@@H](C)C(=O)N[C@@H](CCC(N)=O)C(=O)N[C@H](C(N)=O)C(C)C)[C@@H](C)CC)[C@@H](C)O)[C@@H](C)CC)[C@@H](C)CC)C(C)C)C(C)C
EC50 [nM] (cAMP, CRF1R-overexpression CHO-K1 cells) [1]: > 250 nM
Emax (% I) (cAMP, 100% = Sauvagine at 100 nM) [1]: 6 % I
EC50 [nM] 0% HSA (cAMP, A7R5 rat aortic smooth muscle cells) [2]: 0.63 nM

Now from value to binder:

EC50 [nM] (cAMP, CRF1R-overexpression CHO-K1 cells) [1]: > 250 nM
Emax (% I) (cAMP, 100% = Sauvagine at 100 nM) [1]: 27 % I
EC50 [nM] 0% HSA (cAMP, A7R5 rat aortic smooth muscle cells) [2]: 0.17 nM
B1: peptide of SEQ ID NO: 235 (peptide)
peptide: Pentanoyl-VLSLD[dV]PIKLK([AEEA-γGlu-C20 diacid])KILLEQEKQKKQREQAETN[Aib]QILAQV-NH2
SMILES: CCCCC(=O)N[C@H](C(=O)N[C@@H](CC(C)C)C(=O)N[C@@H](CO)C(=O)N[C@@H](CC(C)C)C(=O)N[C@@H](CC(=O)O)C(=O)N[C@@H](C(=O)N1CCC[C@H]1C(=O)N[C@H](C(=O)N[C@@H](CCCCN)C(=O)N[C@@H](CC(C)C)C(=O)N[C@@H](CCCCNC(=O)COCCOCCNC(=O)CC[C@H](NC(=O)CCCCCCCCCCCCCCCCCCC(=O)O)C(=O)O)C(=O)N[C@@H](CCCCN)C(=O)N[C@H](C(=O)N[C@@H](CC(C)C)C(=O)N[C@@H](CC(C)C)C(=O)N[C@@H](CCC(=O)O)C(=O)N[C@@H](CCC(N)=O)C(=O)N[C@@H](CCC(=O)O)C(=O)N[C@@H](CCCCN)C(=O)N[C@@H](CCC(N)=O)C(=O)N[C@@H](CCCCN)C(=O)N[C@@H](CCCCN)C(=O)N[C@@H](CCC(N)=O)C(=O)N[C@@H](CCCNC(=N)N)C(=O)N[C@@H](CCC(=O)O)C(=O)N[C@@H](CCC(N)=O)C(=O)N[C@@H](C)C(=O)N[C@@H](CCC(=O)O)C(=O)N[C@H](C(=O)N[C@@H](CC(N)=O)C(=O)NC(C)(C)C(=O)N[C@@H](CCC(N)=O)C(=O)N[C@H](C(=O)N[C@@H](CC(C)C)C(=O)N[C@@H](C)C(=O)N[C@@H](CCC(N)=O)C(=O)N[C@H](C(N)=O)C(C)C)[C@@H](C)CC)[C@@H](C)O)[C@@H](C)CC)[C@@H](C)CC)C(C)C)C(C)C

EC50 [nM] (cAMP, CRF1R-overexpression CHO-K1 cells) [1]: > 250 nM
Emax (% I) (cAMP, 100% = Sauvagine at 100 nM) [1]: 12 % I
EC50 [nM] 0% HSA (cAMP, A7R5 rat aortic smooth muscle cells) [2]: 0.09 nM
B5: peptide of SEQ ID NO: 238 (peptide)
peptide: Ac-IVLSLD[dV]PIKLK([AEEA-AEEA-γGlu-C20 diacid])KILLEQEKQKKQREQAETN[Aib]QILAQV-NH2
SMILES: CC[C@H](C)[C@H](NC(C)=O)C(=O)N[C@H](C(=O)N[C@@H](CC(C)C)C(=O)N[C@@H](CO)C(=O)N[C@@H](CC(C)C)C(=O)N[C@@H](CC(=O)O)C(=O)N[C@@H](C(=O)N1CCC[C@H]1C(=O)N[C@H](C(=O)N[C@@H](CCCCN)C(=O)N[C@@H](CC(C)C)C(=O)N[C@@H](CCCCNC(=O)COCCOCCNC(=O)COCCOCCNC(=O)CC[C@H](NC(=O)CCCCCCCCCCCCCCCCCCC(=O)O)C(=O)O)C(=O)N[C@@H](CCCCN)C(=O)N[C@H](C(=O)N[C@@H](CC(C)C)C(=O)N[C@@H](CC(C)C)C(=O)N[C@@H](CCC(=O)O)C(=O)N[C@@H](CCC(N)=O)C(=O)N[C@@H](CCC(=O)O)C(=O)N[C@@H](CCCCN)C(=O)N[C@@H](CCC(N)=O)C(=O)N[C@@H](CCCCN)C(=O)N[C@@H](CCCCN)C(=O)N[C@@H](CCC(N)=O)C(=O)N[C@@H](CCCNC(=N)N)C(=O)N[C@@H](CCC(=O)O)C(=O)N[C@@H](CCC(N)=O)C(=O)N[C@@H](C)C(=O)N[C@@H](CCC(=O)O)C(=O)N[C@H](C(=O)N[C@@H](CC(N)=O)C(=O)NC(C)(C)C(=O)N[C@@H](CCC(N)=O)C(=O)N[C@H](C(=O)N[C@@H](CC(C)C)C(=O)N[C@@H](C)C(=O)N[C@@H](CCC(N)=O)C(=O)N[C@H](C(N)=O)C(C)C)[C@@H](C)CC)[C@@H](C)O)[C@@H](C)CC)[C@@H](C)CC)C(C)C)C(C)C
